From IntAct's records for PubMed 17070805

Target: T1, npl4_human NPLOC4 (UniProt Q8TAT6)
T1 sequence: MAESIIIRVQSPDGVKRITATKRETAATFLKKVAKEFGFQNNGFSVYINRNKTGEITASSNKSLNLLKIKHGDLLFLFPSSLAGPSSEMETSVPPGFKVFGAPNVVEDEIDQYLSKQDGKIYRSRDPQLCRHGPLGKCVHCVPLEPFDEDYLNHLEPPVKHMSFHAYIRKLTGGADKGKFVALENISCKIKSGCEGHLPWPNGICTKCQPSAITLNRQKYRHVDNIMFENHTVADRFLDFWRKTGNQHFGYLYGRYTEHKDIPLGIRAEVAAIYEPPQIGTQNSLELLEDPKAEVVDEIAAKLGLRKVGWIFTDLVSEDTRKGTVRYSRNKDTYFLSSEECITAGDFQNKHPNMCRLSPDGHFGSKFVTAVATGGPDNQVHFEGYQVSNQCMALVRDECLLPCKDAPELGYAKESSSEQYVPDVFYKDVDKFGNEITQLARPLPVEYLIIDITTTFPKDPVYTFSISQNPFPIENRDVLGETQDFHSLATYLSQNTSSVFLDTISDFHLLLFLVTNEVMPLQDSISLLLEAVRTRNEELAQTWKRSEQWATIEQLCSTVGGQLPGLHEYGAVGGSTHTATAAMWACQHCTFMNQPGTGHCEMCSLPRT

effect of a mutation on the interaction: decreasing interaction
Substance: Polyubiquitin-C (Homo sapiens) (from UniProt P0CG48) I44A
